The record followed here is PMC10197580.

As a reminder, the stoichiometry N is the number of molecules, sites or subunits per partner or assembly.

The target of the assay is T1, CST with the His6-MBP tag cleaved (human), Q2NKJ3.
T1 chain 1: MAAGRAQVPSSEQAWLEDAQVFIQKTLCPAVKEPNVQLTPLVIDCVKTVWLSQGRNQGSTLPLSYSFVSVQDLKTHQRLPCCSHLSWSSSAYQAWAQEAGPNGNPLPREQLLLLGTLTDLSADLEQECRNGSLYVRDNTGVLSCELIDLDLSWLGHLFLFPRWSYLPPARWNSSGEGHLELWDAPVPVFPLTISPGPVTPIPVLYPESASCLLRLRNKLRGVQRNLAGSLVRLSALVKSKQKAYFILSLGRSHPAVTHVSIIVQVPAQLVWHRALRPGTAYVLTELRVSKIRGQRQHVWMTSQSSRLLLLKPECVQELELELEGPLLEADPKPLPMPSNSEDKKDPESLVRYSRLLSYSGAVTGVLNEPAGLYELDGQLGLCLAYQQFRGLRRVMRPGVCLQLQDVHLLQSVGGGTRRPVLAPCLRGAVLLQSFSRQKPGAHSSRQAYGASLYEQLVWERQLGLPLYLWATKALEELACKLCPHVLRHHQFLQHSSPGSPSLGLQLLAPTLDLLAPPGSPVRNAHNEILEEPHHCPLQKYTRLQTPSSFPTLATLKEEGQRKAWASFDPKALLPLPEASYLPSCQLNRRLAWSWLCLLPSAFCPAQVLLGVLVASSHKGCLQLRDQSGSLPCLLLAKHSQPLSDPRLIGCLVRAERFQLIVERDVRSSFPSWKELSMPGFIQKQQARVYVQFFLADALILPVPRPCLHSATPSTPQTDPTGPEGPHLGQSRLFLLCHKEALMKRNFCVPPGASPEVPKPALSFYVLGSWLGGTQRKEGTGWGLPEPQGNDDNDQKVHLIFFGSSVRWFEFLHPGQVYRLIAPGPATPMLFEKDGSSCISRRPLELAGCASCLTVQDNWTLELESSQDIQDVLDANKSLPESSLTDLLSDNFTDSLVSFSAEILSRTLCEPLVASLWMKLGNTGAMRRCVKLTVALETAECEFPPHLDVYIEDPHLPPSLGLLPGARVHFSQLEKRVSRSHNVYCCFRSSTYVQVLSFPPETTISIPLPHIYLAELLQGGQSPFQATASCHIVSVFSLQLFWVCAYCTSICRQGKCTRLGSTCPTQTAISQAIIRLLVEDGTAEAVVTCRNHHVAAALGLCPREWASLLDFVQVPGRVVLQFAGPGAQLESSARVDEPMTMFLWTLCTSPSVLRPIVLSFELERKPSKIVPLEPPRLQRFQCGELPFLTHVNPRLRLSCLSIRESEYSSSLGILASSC
T1 chain 2: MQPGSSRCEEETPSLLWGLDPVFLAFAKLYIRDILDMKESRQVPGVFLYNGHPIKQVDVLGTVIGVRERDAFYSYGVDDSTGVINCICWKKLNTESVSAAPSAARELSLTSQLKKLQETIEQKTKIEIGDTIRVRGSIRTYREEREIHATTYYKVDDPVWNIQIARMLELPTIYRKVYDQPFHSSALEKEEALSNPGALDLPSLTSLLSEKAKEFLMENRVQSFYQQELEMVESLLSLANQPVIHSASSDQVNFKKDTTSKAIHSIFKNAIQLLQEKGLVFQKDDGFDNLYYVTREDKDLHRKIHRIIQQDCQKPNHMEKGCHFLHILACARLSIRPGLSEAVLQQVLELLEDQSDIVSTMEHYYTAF
T1 chain 3: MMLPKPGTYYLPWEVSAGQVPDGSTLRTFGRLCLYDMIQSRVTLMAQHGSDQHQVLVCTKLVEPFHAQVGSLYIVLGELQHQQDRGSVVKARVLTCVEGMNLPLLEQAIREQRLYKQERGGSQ
The assay is described as follows: negative-stain EM. The conditions noted are these: remark: other sources report otherwise.

B1: CST with the His6-MBP tag cleaved, Q2NKJ3;Q9H668;Q86WV5 (complex)
chain 1: T1 chain 1
chain 2: T1 chain 2
chain 3: T1 chain 3
As to B1, the stoichiometry N stood at 2.
